This passage reports stoichiometry N results from article PMC8346283.

In the test the target is AmHv1, Hv1-type proton channel of Acropora millepora, tagged with fluorescent proteins (Acropora millepora). Nature of the test: FRET or BRET; spectral FRET (sensitized emission of the acceptor) in HEK293 cells co-expressing mCerulean-AmHv1 (donor) and mCitrine-AmHv1 (acceptor); apparent FRET efficiency against Id/Ia from 134 cells, fitted to a model of random assembly into a dimer. For orientation: In BRET a luciferase serves as donor, and the signal depends on an acceptor being close.

For the substance “AmHv1, Hv1-type proton channel of Acropora millepora, tagged with fluorescent proteins (natural protein)”, the stoichiometry N (usually a count of units in the complex or per binding partner) turned out to be 2.
